Several values for one entry are separate records, joined by “and”; a condition that tells them apart may be missing. Equal entries are not always repeated.

For the test, the target named is T1, agarose-immobilized hNE beads (Homo sapiens, UniProt P08246).
T1 sequence (P08246 30-267): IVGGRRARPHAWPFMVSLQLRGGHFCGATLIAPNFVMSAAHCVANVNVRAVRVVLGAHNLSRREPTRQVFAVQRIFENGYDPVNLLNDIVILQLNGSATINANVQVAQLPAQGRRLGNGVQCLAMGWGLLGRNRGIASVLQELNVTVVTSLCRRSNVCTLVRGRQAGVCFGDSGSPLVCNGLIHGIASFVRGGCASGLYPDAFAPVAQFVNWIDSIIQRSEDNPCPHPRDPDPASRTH
In words: pH fractionation of display phage on agarose-immobilized hNE beads. Format: binding. The note with it: for Recovery Total: total fraction of input; for fraction of input: abbreviated fractionation. The arrangement: Fraction of Input recovered at pH7.0: scale not given here. The text has this:
For the purpose of simultaneously assessing the affinity of a large number of different BPTI and ITI-D1 muteins, DNA sequences encoding the BPTI or ITI-D1 was incorporated into the genome of the bacteriophage M13. […] Alterations in the KuDom amino acid sequence were introduced. Each pure population of phage displaying a particular KuDom was characterized with regard to its interactions with immobilized hNE or hCG. Based on comparison to the pH elution profiles of phage displaying other KuDoms of known affinities for the particular protease, mutant KuDoms having high affinity for the target proteases were identified. Subsequently, the sequences of these mutant KuDoms were determined (typically by sequencing the corresponding DNA sequence).
To test if phage displaying the ITI-D1::III fusion protein interact strongly with the proteases human neutrophil elastase (hNE), aliquots of display phage were incubated with agarose-immobilized hNE beads (“hNE beads”). The beads were washed and bound phage eluted by pH fractionation as described in U.S. Pat. No. 5,223,409. The pHs used in the step gradient were 7.0, 6.0, 5.5, 5.0, 4.5, 4.0, 3.5, 3.0, 2.5, and 2.0. Following elution and neutralization, the various input, wash, and pH elution fractions were titered. Phage displaying ITI-D1 were compared to phage that display EpiNE-7.
To test if ITI-D1E7-display phage bind hNE beads, pH elution profiles were measured. Aliquots of EpiNE-7, MA-ITI-D1, and MA-ITI-D1E7 display phage were incubated with hNE beads for three hours at room temperature (RT). The beads were washed and phage were eluted as described in U.S. Pat. No. 5,223,409, except that only three pH elutions were performed. […] The pH elution profile of EpiNE-7 display phage is as described. MA-ITI-D1E7 phage show a broad elution maximum around pH 5. The total fraction of MA-ITI-D1E7 phage obtained on pH elution from hNE beads was about 40-fold less than that obtained using EpiNE-7 display phage.
We characterized the binding properties to hNE-beads of MA-BITI and MA-BITI-E7 display phage using the extended pH fractionation procedure described in U.S. Pat. No. 5,223,409.
The binding capacity of hNE-beads for display phage varies among preparations of beads and with age for each individual preparation of beads. Thus, it is difficult to directly compare absolute yields of phage from elutions performed at different times. For example, the fraction of MA-EpiNE7 display phage recovered from hNE-beads varies two-fold among the experiments shown in Tables 14, 16, and 17. However, the shapes of the pH elution profiles are similar. It is possible to correct somewhat for variations in binding capacity of hNE-beads by normalizing display phage yields to the total yield of MA-EpiNE7 phage recovered from the beads in a concurrent elution. When the data shown in Tables 14, 16, and 17 are so normalized, the recoveries of display phage, relative to recovered MA-EpiNE7, are shown in Table 3.
ITI-D1 derivative BITI-E7-1222 is BITI-E7 with the alteration A11T. ITI-D1 derivative BITI-E7-141 is BITI-E7 with the alterations E31Q and Q34V; phage that display the presence of these proteins are MA-BITI-E7-1222 and MA-BITI-E7-141. We determined the binding properties to hNE-beads of MA-BITI-E7-1222 and MA-BITI-E7-141 display phage using the extended pH fractionation protocol described previously. The results are in Tables 18 (for MA-BITI-E7 and MA-BITI-E7-1222) and 19 (for MA-EpiNE7 and MA-BITI-E7-141). The pH elution profiles for the MA-BITI-E7 and MA-BITI-E7-1222 phage are almost identical.
Total pfu applied to the beads are in column two. The fractions of this input pfu recovered in each pH fraction of the abbreviated pH elution protocol (pH 7.0, pH 3.5, and pH 2.0) are in the next three columns. […]

Setting [1] is: AE abbreviated pH elution protocol.
[2] abbreviates: relative to parental MA-BITI-E7-141.
The mark [3] stands for this setting: EE extended pH elution protocol.
[4] abbreviates: EE, sum of pH 3.0, 2.5, 2.0 samples.
[5] abbreviates: EE, sum of pH 6.0 to pH 3.5 samples.
[6] abbreviates: SUM of all pH elution fractions.
Setting [7] is: extended protocol, final TBS-TWEEN wash.
Setting [8] is: extended protocol, pH 3.0 fraction.
Setting [9] is: extended protocol, pH 4.0 fraction.
Where [10] appears, read: extended protocol, pH 4.5 fraction.
Setting [11] is: extended protocol, pH 5.0 fraction.
[12] abbreviates: extended protocol, pH 5.5 fraction.
The mark [13] stands for this setting: extended protocol, pH 7.0 fraction.

In the case of “MUTP1: ITI-D1 derivative asserting I15, G16, S19; SEQ ID NO 024 (RPDFCQLGYSAGPCIGMFSRYFYNGTSMACETFQYGGCMGNGNNFVTEKDCLQTCRGA; MUTP1)”, under setting [1], the “Fraction of Input recovered at pH2.0” value is 1.2 ×10^−4, the “Fraction of Input recovered at pH3.5” value is reported as 9.2 ×10^−4 and the “Fraction of Input recovered at pH7.0” value is reported as 1.8. Also, under “AE”, the “Recovery Total” value was 12.0 ×10^−4.
Turning to “AMINO2: ITI-D1 derivative carrying K1-S4, SEQ ID NO 023 (KPDSCQLGYSAGPCVAMFPRYFYNGTSMACETFQYGGCMGNGNNFVTEKDCLQTCRGA; AMINO2)”, under setting [1], the “Fraction of Input recovered at pH2.0” value is given as 0.45 ×10^−4, the “Fraction of Input recovered at pH3.5” value is listed as 2.1 ×10^−4 and the “Fraction of Input recovered at pH7.0” value came out at 0.57. Moreover, the “Recovery Total” value (AE) is recorded as 3.1 ×10^−4. In addition, the “reduction of display phage binding to hNE-beads” value under setting [2] is given as “at least ten fold”.
On to “ITI-D1E7: ITI-D1 with EpiNE-7 sequence at positions 15-20, SEQ ID NO 021 (KEDSCQLGYSAGPCVAMFPRYFYNGTSMACETFQYGGCMGNGNNFVTEKDCLQTCRGA; ITI-D1E7)”, for which the “estimated affinity of free protein for hNE” value (estimated from pH elution profile of display phage) is recorded as “in the nM range”.
As to “BITI-E7: ITI-D1E7 with K1R, E2P and S4F; SEQ ID NO 142 (RPDFCQLGYSAGPCVAMFPRYFYNGTSMACETFQYGGCMGNGNNFVTEKDCLQTCRGA; BITI-E7)”, the “fold greater affinity for hNE than ITI-D1E7” value was “ten-fold”.
In the case of “MUT1619: BITI-E7-141 with ITI-D1 residues restored at 16 and 19; SEQ ID NO 020 (RPDFCQLGYSAGPCVGMFSRYFYNGTSMACQTFVYGGCMGNGNNFVTEKDCLQTCRGA; MUT1619)”, the “Fraction of Input recovered at pH7.0” value under setting [3] is recorded as 0.82. For the same substance, under setting [4], the “Fraction of Input recovered at pH2.0” value is 0.84 ×10^−4. The “Fraction of Input recovered at pH3.5” value under setting [5] is reported as 9.9 ×10^−4. Moreover, under “EE”, the “Recovery Total” value is 12.0 ×10^−4. In addition, where the note is “range of the affinity class”, the “Fraction of Input bound” value is given as >0.1% and the “pH Elution Maximum” value was “≦4.0 pH”.
On to “BITI-E7-1222: BITI-E7 with the alteration A11T; SEQ ID NO 143 (RPDFCQLGYSTGPCVAMFPRYFYNGTSMACETFQYGGCMGNGNNFVTEKDCLQTCRGA; BITI-E7-1222)”, for which, under setting [3], the “Fraction of Input recovered at pH7.0” value was determined as 0.72. In addition, the “Fraction of Input recovered at pH2.0” value under setting [4] is on record as 0.64 ×10^−4. For the same substance, the “Fraction of Input recovered at pH3.5” value under setting [5] is 4.0 ×10^−4. Further, the “Recovery Total” value (EE) is 5.4 ×10^−4.
Turning to “BITI-E7-141: BITI-E7 with the alterations E31Q and Q34V; SEQ ID NO 017 (RPDFCQLGYSAGPCVAMFPRYFYNGTSMACQTFVYGGCMGNGNNFVTEKDCLQTCRGA; BITI-E7-141)”, the “fold greater affinity for hNE than BITI-E7” value is “approximately 100 fold”. Also, under setting [1], the “Fraction of Input recovered at pH2.0” value is recorded as 5.4 ×10^−4, the “Fraction of Input recovered at pH3.5” value is on record as 18.0 ×10^−4 and the “Fraction of Input recovered at pH7.0” value came out at 2.2. For the same substance, the “Recovery Total” value (AE) is 26.0 ×10^−4. Also, the “Fraction of Input recovered at pH7.0” value under setting [3] is listed as 2.1. Also, under setting [4], the “Fraction of Input recovered at pH2.0” value is reported as 3.2 ×10^−4. Moreover, the “Fraction of Input recovered at pH3.5” value under setting [5] was 21. ×10^−4. For the same substance, for the setting “EE”, the “Recovery Total” value is 26.0 ×10^−4. For the same substance, under “range of the affinity class”, the “Fraction of Input bound” value is on record as >0.1% and the “pH Elution Maximum” value is on record as “≦4.0 pH”.
Regarding “EpiNE7: BPTI-derived Kunitz domain, SEQ ID NO 009; in Tables 14-16 the phage displaying it”, the “fold greater affinity for hNE than ITI-D1E7” value is listed as “roughly 1000 fold”. For the same substance, the “Fraction of Input recovered at pH7.0” value under setting [3] was found to be 0.44. For the same substance, the “Fraction of Input recovered at pH2.0” value under setting [4] was 2.2 ×10^−4. Under setting [5], the “Fraction of Input recovered at pH3.5” value is reported as 6.4 ×10^−4. The “Recovery Total” value (EE) is given as 9.0 ×10^−4. Also, under setting [6], the pfu is 6.4 · 10^6 pfu and 7.6 · 10^6 pfu; the “pfu/INPUT (fraction of input)” value was 3 · 10^−3 and 4.1 · 10^−3; the fraction of input was 4.3 · 10^−3. Further, the fraction of input (Wash) is reported as 6 · 10^−5. For the same substance, the fraction of input (pH 2.0) is reported as 1 · 10^−3. Besides, the fraction of input (pH 3.5) was 3 · 10^−3. The fraction of input (pH 7.0) is given as 3 · 10^−4. Also, the “total fraction of input phage eluted from hNE beads” value (all pH elution fractions) was “About 0.3%”. Further, the pH Elution Maximum (display phage on hNE beads) is reported as ~4.0 pH. In addition, under setting [7], the pfu was 3.8 · 10^5 pfu and the “pfu/INPUT (fraction of input)” value is given as 1.2 · 10^−4. For the same substance, the pfu (extended protocol, pH 2.0 fraction) is 3.0 · 10^5 pfu and 2.9 · 10^5 pfu. For the same substance, the pfu (extended protocol, pH 2.5 fraction) is 1.6 · 10^5 pfu and 2.8 · 10^5 pfu. For the same substance, under setting [8], the pfu was 6.6 · 10^5 pfu and 3.8 · 10^5 pfu; the “pfu/INPUT (fraction of input)” value was 2.0 · 10^−4 and 2.1 · 10^−4. Further, under setting [9], the pfu was 1.6 · 10^6 pfu and 1.7 · 10^6 pfu; the “pfu/INPUT (fraction of input)” value was 4.8 · 10^−4 and 9.4 · 10^−4. For the same substance, under setting [10], the pfu is 1.2 · 10^6 pfu and 1.1 · 10^6 pfu; the “pfu/INPUT (fraction of input)” value was 3.5 · 10^−4 and 6.1 · 10^−4. Further, under setting [11], the pfu was 9.5 · 10^5 pfu and 8.4 · 10^5 pfu; the “pfu/INPUT (fraction of input)” value was 2.9 · 10^−4 and 4.7 · 10^−4. Also, under setting [12], the pfu was 9.4 · 10^5 pfu and 7.8 · 10^5 pfu; the “pfu/INPUT (fraction of input)” value was 2.8 · 10^−4 and 4.3 · 10^−4. Besides, the “pfu/INPUT (fraction of input)” value (extended protocol, pH 6.0 fraction) was 4.1 · 10^−4 and 3.6 · 10^−4. For the same substance, under setting [13], the pfu is 6.2 · 10^5 pfu and 5.2 · 10^5 pfu; the “pfu/INPUT (fraction of input)” value is 1.8 · 10^−4 and 2.9 · 10^−4.
With “MUTT26A: BITI-E7-141 with T26A; SEQ ID NO 018 (RPDFCQLGYSAGPCVAMFPRYFYNGASMACQTFVYGGCMGNGNNFVTEKDCLQTCRGA; MUTT26A)”, the “Fraction of Input recovered at pH7.0” value under setting [3] is reported as 2.5. In addition, under setting [4], the “Fraction of Input recovered at pH2.0” value is 3.3 ×10^−4. The “Fraction of Input recovered at pH3.5” value under setting [5] is on record as 19.0 ×10^−4. Moreover, the “Recovery Total” value (EE) is reported as 25.0 ×10^−4. In addition, where the note is “range of the affinity class”, the “Fraction of Input bound” value is >0.1% and the “pH Elution Maximum” value is “≦4.0 pH”. For the same substance, the “effect of change on binding of display phage to hNE-beads” value under setting [2] is “little effect”.
Regarding “AMINO1: ITI-D1 derivative carrying K1-E2, SEQ ID NO 022 (KEDFCQLGYSAGPCVAMFPRYFYNGTSMACETFQYGGCMGNGNNFVTEKDCLQTCRGA; AMINO1)”, the “Fraction of Input recovered at pH7.0” value under setting [3] is given as 0.24. The “Fraction of Input recovered at pH2.0” value under setting [4] is listed as 0.35 ×10^−4. Further, the “Fraction of Input recovered at pH3.5” value under setting [5] is 2.3 ×10^−4. The “Recovery Total” value (EE) is on record as 2.9 ×10^−4. Besides, the “reduction of display phage binding to hNE-beads” value under setting [2] was “at least ten fold”.

The record behind these values is US20060134087A1, “ITI-D1 Kunitz domain mutants as hNE inhibitors” (Dyax Corp., priority 1988, published 2006).
